Measured values as given in patent US20190241663A1 (Genentech, published 2019).

T1: S114A human B7-H4 (full-length membrane construct, glycosylation site N112-S114 removed) (human, UniProt Q7Z7D3 29-282)
T1 construct: Transiently transfected into 293 cells; also called mutated S114A human B7-H4
T1 sequence: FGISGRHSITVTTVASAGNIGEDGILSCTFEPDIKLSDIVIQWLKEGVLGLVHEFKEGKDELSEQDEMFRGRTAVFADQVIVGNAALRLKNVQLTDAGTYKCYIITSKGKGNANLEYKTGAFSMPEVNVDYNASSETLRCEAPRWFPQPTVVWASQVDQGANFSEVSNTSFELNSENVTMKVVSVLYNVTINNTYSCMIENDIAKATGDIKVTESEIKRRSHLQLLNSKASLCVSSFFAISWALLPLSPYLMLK

T2: irrelevant (Ig-V)-B7-H4 (Ig-C; D158-G236 including TM/CD D237-K282) chimeric membrane protein (construct-88B) (human, UniProt Q7Z7D3 158-282)
T2 construct: Transiently expressed on 293 cells; also called B7-H4 Ig-C domain; not shown: irrelevant Ig-V domain; an N-terminal or cytoplasmic tag was attached but is not described
T2 sequence: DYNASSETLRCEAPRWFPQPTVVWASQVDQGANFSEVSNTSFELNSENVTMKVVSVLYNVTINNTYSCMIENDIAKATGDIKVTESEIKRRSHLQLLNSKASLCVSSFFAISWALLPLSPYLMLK


Experiments:
[1] = target: T1, S114A human B7-H4 (full-length membrane …); assay: FACS on 293 cells transfected with S114A human B7-H4, against isotype control
Text: The B7-H4 (Ig-V) domain contains a single N-linked glycosylation site (N112-S114), and to determine whether glycosylation influences binding of the antibodies to B7-H4, S114 was substituted with alanine using standard site-specific mutagenesis to prevent glycosylation in the full-length human B7-H4 membrane construct.

[2] = target: T2, irrelevant (Ig-V)-B7-H4 (Ig-C; …); assay: FACS on 293 cells transiently transfected with construct-88B, dye-labeled antibody
Text: To determine whether the B7-H4 antibodies bind to either the Ig-V or Ig-C domain of B7-H4, chimeric Ig domain molecules were engineered that contain either a B7-H4 (IgV; G28-F150 including spacer S151-V157)—irrelevant (Ig-C) (construct-88) or an irrelevant (Ig-V)-B7-H4 (Ig-C; D158-G236 including TM/CD D237-K282) (construct-88B) membrane protein using standard molecular cloning methods. N-terminal or cytoplasmic tags were attached to confirm that 293 cells transfected with these constructs express protein on the cell membrane (data not shown). Briefly, 293 cells were transiently transfected with constructs 88 & 88B using polyfect. After 48 hours, the cells were stained with 10 μg/ml of Dylight-488 or −650 labeled ch9B9, ch1D11, ch22C10 or ch32D6 for 30-40 minutes at 4° C., washed and analyzed on a BD FACS calibur.

Binder | fold binding over isotype control [1] [fold] | binding result [2]
ch1D11, slightly modified version with light chain C43G (antibody, human IgG1, V domains shown, Human IgG1 / kappa chimeric; also called ch1D11 (C43G light chain)) VH: QVQLQQSGAELVRPGTSVKMSCKASGYTFTSYWIGWAKQRPGHGFEWIGDIYPGGGYTNYNEKFKGKATLTADKSSSTAYMQFSSLTSEDSAIYYCARLDGSSYRGAMDSWGQGTSITVSS VL: DIQMTQSPSSLSASLGGKVTITCKASQGFNKYVAWYQHKPGQGPRLLIHYTSTLQPGIPARFSGSGSGRDYSFSISNLEPEDSATYFCLQYGNLLYAFGGGTKLEIKR | 100 | no binding (tested: 10 µg/ml)
chimeric antibody ch9B9 (antibody, V domains shown) VH: QVQLQQSGAELMKPGASVKMSCKATGYTFSSYWIEWVKQRPGHGLEWIGEILPGTSITTYNAKFKVKATFTADTSSNTAYMQLSSLTSEDSAVYFCARYYFGSSSFYFDYWGQGTSLTVSS VL: QAVVTQESALTTSPGDTVTLTCRSSTGAVTTSNYANWVQEKPDHLFTGLIGGTNNRVPGVPARFSGSLIGDKAALTITGAQTEDEAMYFCALWYNNHWVFGGGTKLE | 100 | no binding (tested: 10 µg/ml)
chimeric antibody ch32D6 (antibody, V domains shown) VH: EVQLQQSGPDLVKPGASVKISCKASGYSFTGYYIHWMKQSHGKSLEWIGRVNPNNGDPIYNQKFRGKAILTVDQSSNTAYMELRSLTSEASAVYYCARVLFYYGSPFAYWGQGTLVTVSA VL: DIVMTQSPSSLIVTAGEKVTMSCRSSQSLFDSGSQRNYLTWFHQKPGRPPKLLIYWASTRESGVPDRFTGSGSGTDFTLTISSVQTEDLAVYFCQNDYSFPFTFGSGTKLEEK | 100 | no binding (tested: 10 µg/ml)
chimeric antibody ch22C10 (antibody, V domains shown, also called ch2210; parental 22C10 antibody) VH: QVQLQQPGAELVKPGTSVKLSCKASGYTFTNFWIHWVIQRPGQGLEWIGEIDPSDSYTNYNQKFKGKATLTVDKSSNTAYMQLSSLTSEDSAVYYCSREITTVDYWGQGTTLTVSS VL: QIVLTQSPTIMSASPGEKVTLTCSATSSISYMHWYQQKPGTSPKGWIYDTSKLAHGVPARFSGSGSGTSYSLTISSMEAEDAATYYCHQRRSYPFTFGSGTKLEIK | 100 | no binding (tested: 10 µg/ml)
